This passage reports percent of the particles with stably bound SRP (% of the particles) results from publication PMC8881573, “Inhibition of SRP-dependent protein secretion by the bacterial alarmone (p)ppGpp” (Nature Communications, 2022).

The target of assay [1] is (Bs)MifM-stalled RNC (B. subtilis | B. subtilis (endogenous in the B. subtilis 168 extract)) (UniProt Q7WY64). Description: cryo-EM structure; (Bs)SRP pre-incubated with pppGpp, tenfold molar excess over MifM-stalled RNCs, 10 min at room temperature.
Assay [2] shares this target. Description: cryo-EM structure; (Bs)SRP pre-incubated with GMPPNP, tenfold molar excess over MifM-stalled RNCs, 10 min at room temperature.

With “recombinant (Bs)SRP (Ffh and 6S RNA) (from UniProt P37105 1-446) (natural protein)”, the percent of the particles with stably bound SRP (% of the particles) in assay [1] is 38; in assay [2], 24.
